According to patent publication EP4707300A1 (Beijing Wisdomab Biotechnology Co., Ltd, dated 2026):
Substitutions are numbered along the chain they refer to.

B1: anti-human IL-15 monoclonal antibody R26H10 (antibody, V domains shown)
VH: QVTLKESGPVLVKPTETLTLTCTVSGFSLTTYAVHWIRQPPGKALEWLGVIWGAGSTDYNPSFMSRLTISKDTSKSQVVLTMTNMDPVDTATYYCAKNAAYYVMDYWGQGTTVTVSS
VL: EIVLTQSPGTLSLSPGERATLSCRASQSVIYSYLAWYQQKPGQAPRLLIYAASKLASGIPDRFSGSGSGTDFTLTISRLEPEDFAVYYCQQRASYPLTFGQGTKVEIK
notes: Humanized mutant of R6E11 with a fully human light chain; captured by anti-human IgG (Fc) in SPR and detected with anti-human IgG in ELISA
B2: anti-human IL-15 monoclonal antibody R4G4VH+R22F11VK (antibody, V domains shown)
VH: EVQLVQSGAEVKKPGESLKISCKVSGYFFTTYWIGWVRQMPGKGLEYMGIIYPGDSDTRYSPSFQGQVTISADKSISTAYLQWSSLKASDTAMYYCARGGHWNAFDIWGQGTLVTVSS
VL: B1 VL with Y31G, A51S, R92H, A93Y, Y95T, L97G
notes: Mutant of R1A3; it was captured by anti-human IgG (Fc) in SPR and detected with anti-human IgG in ELISA, so a human Fc is implied; also called R4G4VH+R22FVK
B3: anti-human IL-15 monoclonal antibody R2H2VH+R22F11VK (antibody, V domains shown)
VH: B2 VH with A104S, I107T
VL: B1 VL with Y31G, A51S, R92H, A93Y, Y95T, L97G
notes: Mutant of R1A3; it was captured by anti-human IgG (Fc) in SPR and detected with anti-human IgG in ELISA, so a human Fc is implied; also called R2H2VH+R22FVK
B4: anti-human IL-15 monoclonal antibody R1A3 (antibody, V domains shown)
VH: B2 VH with I107F
VL: EIVLTQSPGTLSLSPGERATLSCRASQSVSSSYLAWYQQKPGQAPRLLIYGASRRATGIPDRFSGSGSGTDFTLTISRLEPEDFAVYYCQQFDASQTFGQGTKLEISR
notes: Found from a fully human Fab phage library
B5: anti-human IL-15 monoclonal antibody AMG714 (antibody, V domains shown)
VH: B2 VH with H101N, A104C, I107Y
VL: B4 VL with Q91R, F92Y, D93G, A94S, Q96H
B6: mouse anti-human IL-15 monoclonal antibody R6E11 (antibody, V domains shown)
VH: EVKLKESGPSLVQPSQSLSITCTVSGFSLTTYAVHWVRQSPGKGLEWLGVIWGAGSTDYNAAFMSRLSITKDNSKSQVFFKMNSLQADDTAIYFCAKNGAYYVMDYWGQGTSVTVSS
VL: EIVLTQSPAIMSASPGEKVTITCSASSSVSYMHWFQQRPGTSPKLWIYSTSNLASGVPARFSGSGSGTSYSLTISRMEAEDAATYYCQQRSSYPLTFGAGTKLEIK
notes: Mouse variable regions from a mouse immune phage library

How the values were obtained:
[1] = target: human IL-15 (hIL-15+hIL-15Rα complex), tag on IL-15Rα not stated (human (homo sapiens)) (UniProt P40933); assay: cell-based or functional assay
[2] = target: human IL-15 (hIL-15+hIL-15Rα-His complex) (human (homo sapiens)) (UniProt P40933); assay: cell-based or functional assay
[3] = target: cynomolgus monkey IL-15 (mfIL-15+mfIL-15Rα complex), tag on IL-15Rα not stated (cynomolgus monkey (Macaca fascicularis)) (UniProt P40221); assay: SPR (Biacore T200), as in Example 2.2
[4] = target: human IL-15 (hIL-15+hIL-15Rα complex), tag on IL-15Rα not stated (human (homo sapiens)) (UniProt P40933); assay: SPR (Biacore T200), as in Example 2.2
[5] = target: human IL-15 (hIL-15+hIL-15Rα complex), tag on IL-15Rα not stated (human (homo sapiens)) (UniProt P40933); assay: SPR (Biacore T200), as in Example 2.2; remark: listed apart in the source
[6] = target: human IL-15 (hIL-15+hIL-15Rα complex), tag on IL-15Rα not stated (human (homo sapiens)) (UniProt P40933); assay: SPR (Biacore T200), antibody captured by anti-human IgG Fc, complex as analyte, 1:1 model
[7] = target: T1, human IL-15 (hIL-15+hIL-15Rα complex), tag on IL-15Rα not stated (human (homo sapiens), UniProt P40933 49-162; Q13261 31-128); assay: cell-based or functional assay
[8] = target: human IL-15 (hIL-15+hIL-15Rα-His complex) (human (homo sapiens), UniProt P40933 49-162; Q13261 31-128); assay: cell-based or functional assay
[9] = target: T1, human IL-15 (hIL-15+hIL-15Rα complex), …; assay: SPR (Biacore T200), as in Example 2.2
[10] = target: T1, human IL-15 (hIL-15+hIL-15Rα complex), …; assay: SPR (Biacore T200), as in Example 2.2; remark: listed apart in the source
[11] = target: T2, cynomolgus monkey IL-15 (mfIL-15+mfIL-15Rα complex), tag on IL-15Rα not stated (cynomolgus monkey (Macaca fascicularis), UniProt P40221 49-162; Q13261 31-128); assay: SPR (Biacore T200), as in Example 2.2
T2 construct: also called monkey IL-15+IL-15Rα superagonist
T2 chain 1: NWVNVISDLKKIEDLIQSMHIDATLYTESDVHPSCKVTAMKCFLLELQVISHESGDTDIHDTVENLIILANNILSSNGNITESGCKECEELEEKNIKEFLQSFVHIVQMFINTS
T2 chain 2: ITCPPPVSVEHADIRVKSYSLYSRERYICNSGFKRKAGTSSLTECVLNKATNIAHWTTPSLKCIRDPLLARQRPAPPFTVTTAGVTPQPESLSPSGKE

[12] = target: cynomolgus monkey IL-15 (mfIL-15+mfIL-15Rα-His complex) (cynomolgus monkey (Macaca fascicularis), UniProt P40221 49-162 (Chlorocebus aethiops entry)); assay: ELISA, complex coated at 1 µg/mL, anti-human IgG-HRP detection
[13] = target: T3, mouse IL-15 (mIL-15+mIL-15Rα-mFc1 complex) (mouse (Mus musculus), UniProt P48346 49-162); assay: as above
T3 construct: also called mIL-15+mIL-15Rα-mFe1 complex

[14] = target: T1, human IL-15 (hIL-15+hIL-15Rα complex), …; assay: SPR (Biacore T200), as in Example 2.2; remark: listed apart in the source
[15] = target: T1, human IL-15 (hIL-15+hIL-15Rα complex), …; assay: SPR (Biacore T200), antibody captured by anti-human IgG Fc, complex as analyte, 1:1 model
[16] = target: T1, human IL-15 (hIL-15+hIL-15Rα complex), …; assay: SPR (Biacore T200), as in Example 2.2; remark: listed apart in the source

human IL-15 (hIL-15+hIL-15Rα-His complex), sequence (P40933 49-162 limits assumed, chain 1 of 2): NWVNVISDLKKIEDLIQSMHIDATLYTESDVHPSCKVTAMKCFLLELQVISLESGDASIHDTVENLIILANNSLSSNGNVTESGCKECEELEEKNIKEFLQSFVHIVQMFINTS
human IL-15 (hIL-15+hIL-15Rα-His complex), sequence (Q13261 other isoform, or with tags, fused parts or gaps limits assumed, chain 2 of 2): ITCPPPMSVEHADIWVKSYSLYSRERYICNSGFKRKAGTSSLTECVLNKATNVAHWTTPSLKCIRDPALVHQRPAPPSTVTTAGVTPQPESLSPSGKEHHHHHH
T3 sequence (P48346 49-162 limits assumed, chain 1 of 2): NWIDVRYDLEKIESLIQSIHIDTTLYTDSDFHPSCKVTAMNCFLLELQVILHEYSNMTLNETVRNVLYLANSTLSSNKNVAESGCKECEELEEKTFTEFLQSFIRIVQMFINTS
T3 sequence (chain, as listed by the source limits assumed, chain 2 of 2): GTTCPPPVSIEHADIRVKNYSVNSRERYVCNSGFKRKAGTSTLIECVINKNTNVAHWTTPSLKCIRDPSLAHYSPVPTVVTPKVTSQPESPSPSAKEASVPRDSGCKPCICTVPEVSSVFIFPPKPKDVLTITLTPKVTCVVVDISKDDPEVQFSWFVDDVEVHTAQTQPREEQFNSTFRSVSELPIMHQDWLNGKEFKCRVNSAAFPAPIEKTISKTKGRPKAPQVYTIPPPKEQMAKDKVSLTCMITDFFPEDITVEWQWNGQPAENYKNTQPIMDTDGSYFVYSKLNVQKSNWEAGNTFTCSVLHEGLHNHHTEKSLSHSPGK

| Molecule | IC50(nM), inhibition of IL-15-induced SEAP secretion by HEK-Blue IL-2 cells [7] [nM] | IC50(nM), inhibition of IL-15-driven proliferation of NK92 cells (Cell Titer-Glo) [8] [nM] | Kd [10] [nM] | koff [10] [s⁻¹] | kon [10] [M⁻¹ s⁻¹] | Kd [11] [nM] | koff [11] [s⁻¹] | kon [11] [M⁻¹ s⁻¹] | binding result [12] | binding result [13] | Kd [14] [nM] | koff [14] [s⁻¹] | kon [14] [M⁻¹ s⁻¹] | other results |
| --- | --- | --- | --- | --- | --- | --- | --- | --- | --- | --- | --- | --- | --- | --- |
| anti-human IL-15 monoclonal antibody CALY-002 |  |  |  |  |  |  |  |  |  |  |  |  |  | IC50(nM), inhibition of IL-15-induced SEAP secretion by HEK-Blue IL-2 cells [1]: 3.23 nM; IC50(nM), inhibition of IL-15-driven proliferation of NK92 cells (Cell Titer-Glo) [2]: 0.106 nM; Kd [3]: 0.148 nM; koff [3]: 0.000188 s⁻¹; kon [3]: 1.27e+06 M⁻¹ s⁻¹; Kd [4]: 0.201 nM; koff [4]: 0.000207 s⁻¹; kon [4]: 1.03e+06 M⁻¹ s⁻¹; Kd [5]: 0.337 nM; koff [5]: 0.000235 s⁻¹; kon [5]: 697000 M⁻¹ s⁻¹; Kd [6]: 0.239 nM; koff [6]: 0.000319 s⁻¹; kon [6]: 1.34e+06 M⁻¹ s⁻¹ |
| B1 | 0.646 | 0.133 | 1.13 | 0.000236 | 208000 | 99.9 | 0.021 | 210000 | binds | no binding |  |  |  | Kd [9]: 1.22 nM; koff [9]: 0.000308 s⁻¹; kon [9]: 252000 M⁻¹ s⁻¹ |
| B2 | 0.312 | 0.109 | 0.435 | 0.000196 | 450000 | 0.448 | 0.000172 | 384000 | binds | no binding | 0.346 | 0.00029 | 838000 |  |
| B3 | 0.397 | 0.119 | 0.57 | 0.000204 | 357000 | 0.463 | 0.000171 | 365000 | binds | no binding | 0.379 | 0.000299 | 791000 |  |
| B4 | 0.634 | 0.126 | 0.612 | 0.00038 | 621000 | 0.722 | 0.000398 | 552000 |  | no binding | 0.352 | 0.000548 | 1.56e+06 | Kd [15]: 0.381 nM; koff [15]: 0.000537 s⁻¹; kon [15]: 1.41e+06 M⁻¹ s⁻¹ |
| B5 |  |  |  |  |  | 2.12 | 0.00124 | 583000 |  |  |  |  |  |  |
| B6 |  |  |  |  |  |  |  |  |  |  |  |  |  | Kd [16]: 0.689 nM; koff [16]: 0.000267 s⁻¹; kon [16]: 387000 M⁻¹ s⁻¹; Kd [9]: 0.983 nM; koff [9]: 0.000399 s⁻¹; kon [9]: 406000 M⁻¹ s⁻¹ |
